In publication doi:10.1101/2025.11.27.690911:

Biological target: thrombin (UniProt P00734;P00734 328-363;364-622)
Assay: SPR

B1: SuperCan (structured_DNA)
DNA: GAAGAATGAACAGAGTAGGTCAAAGTCAGTGGGGAGTACACCACTGACGACGAGTTGAATGAACGTAGGAAGTAAGTATACGTTCATTCTTAGCTTCCAAAGCAGAGTGCGAGGCTTTGGAGCGTAACTTGCGTTATCGTCGCAAGAAAGCAAACGGTGATGAGACAATC
- binding result: binds
